Assay results taken from PMC8754639.

Assays:
DHX36 (RHAU) = molecular target: T1, DHX36 (RHAU) (UniProt Q9H2U1 1-1008); experiment: MST
T1 sequence: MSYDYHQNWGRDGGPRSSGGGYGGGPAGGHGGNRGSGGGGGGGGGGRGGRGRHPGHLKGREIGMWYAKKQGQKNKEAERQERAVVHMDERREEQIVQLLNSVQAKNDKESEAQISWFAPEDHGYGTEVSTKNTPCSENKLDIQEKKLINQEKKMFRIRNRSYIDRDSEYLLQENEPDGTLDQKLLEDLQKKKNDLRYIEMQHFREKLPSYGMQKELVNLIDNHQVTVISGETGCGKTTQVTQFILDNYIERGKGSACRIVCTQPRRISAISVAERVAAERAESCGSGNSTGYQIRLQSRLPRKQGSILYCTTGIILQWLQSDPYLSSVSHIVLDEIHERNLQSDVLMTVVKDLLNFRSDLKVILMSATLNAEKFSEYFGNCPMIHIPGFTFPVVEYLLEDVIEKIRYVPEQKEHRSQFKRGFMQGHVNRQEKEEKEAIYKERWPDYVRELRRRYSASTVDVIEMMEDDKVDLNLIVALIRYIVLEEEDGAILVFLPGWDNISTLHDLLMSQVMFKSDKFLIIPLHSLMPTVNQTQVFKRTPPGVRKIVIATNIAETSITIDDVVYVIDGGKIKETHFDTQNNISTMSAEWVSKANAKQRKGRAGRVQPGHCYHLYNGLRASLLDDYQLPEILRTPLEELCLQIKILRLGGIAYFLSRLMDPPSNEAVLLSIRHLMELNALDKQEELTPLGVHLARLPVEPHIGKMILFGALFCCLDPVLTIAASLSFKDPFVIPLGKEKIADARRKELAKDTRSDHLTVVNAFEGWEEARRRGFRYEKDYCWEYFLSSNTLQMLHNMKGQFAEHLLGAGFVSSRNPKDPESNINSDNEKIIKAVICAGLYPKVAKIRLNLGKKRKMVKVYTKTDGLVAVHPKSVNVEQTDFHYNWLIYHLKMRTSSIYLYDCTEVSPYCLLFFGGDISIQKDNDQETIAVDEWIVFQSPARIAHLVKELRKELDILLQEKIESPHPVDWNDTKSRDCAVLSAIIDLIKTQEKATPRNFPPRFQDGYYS

NONO (53-312) [1] = molecular target: T2, NONO (53-312) (UniProt Q15233 53-312); experiment: EMSA
T2 sequence: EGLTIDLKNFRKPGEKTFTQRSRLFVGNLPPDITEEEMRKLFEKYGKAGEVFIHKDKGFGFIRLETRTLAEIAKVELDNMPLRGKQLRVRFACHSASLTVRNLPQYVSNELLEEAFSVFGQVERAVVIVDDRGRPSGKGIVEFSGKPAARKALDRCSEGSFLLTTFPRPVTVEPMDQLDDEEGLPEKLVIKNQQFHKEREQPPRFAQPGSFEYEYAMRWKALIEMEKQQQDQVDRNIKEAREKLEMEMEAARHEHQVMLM

RHAU53 peptide = molecular target: T3, RHAU53 peptide (UniProt Q9H2U1 53-105); experiment: MST competition
T3 sequence: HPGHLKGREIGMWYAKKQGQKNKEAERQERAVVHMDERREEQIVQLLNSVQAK

NONO (53-312) [2] = molecular target: T2, NONO (53-312); experiment: filter binding

Binder: AGGGUGGGCUUUUGUUGAUGAGGGAGGGGA (structured_RNA) [MALAT1 rG4_04 (FAM)]
- Kd (DHX36 (RHAU)): 130 ± 16 nM
- Kd (NONO (53-312) [1]): 46.9 ± 12.1 nM
- IC50 (RHAU53 peptide): 621 ± 95.3 nM

Binder: AGAAGAGAGAAAGAAAGAAAGCGAGC (ssRNA) [MALAT1 rG4_09 MUT (biotin)]
- binding result (NONO (53-312) [2]): no binding

Binder: AGGGGAGGGAAAGGGGGAAAGCGGGC (structured_RNA) [MALAT1 rG4_09 (FAM)]
- Kd (NONO (53-312) [1]): 80.9 ± 18.1 nM
